Results taken from article PMC6742648, “A potent broadly neutralizing human RSV antibody targets conserved site IV of the fusion glycoprotein” (Nature Communications, 2019).

B1: RB1, fully human IgG1 monoclonal antibody (antibody, V domains shown)
VH: EVQLVESGGGLVRPGRSLRLSCTVSGFSFDDSAMSWVRQAPGKGLEWISFIKSKTYGGTKEYAASVKGRFTISRDDSKNIAYLQMNSLKTEDTAVYYCTRGAPYGGNSDYYYGLDVWGQGTTVTVSS
VL: DIQMTQSPSSLSASVGDRVTITCRTSQDVRGALAWYQQKPGKAPKLLIFDASSLETGVPSRFSGSGSGTVFTLTISSLQPEDFAAYYCQQFLDFPFTFGQGTRLEIK
B2: RB1 fragment antigen-binding (Fab) (Fab, V domains shown)
VH: B1 VH
VL: B1 VL
notes: Fab heavy chain of RB1 (VH as the heavy chain of m1, plus CH1 of human IgG1 up to the cleavage site); light chain of RB1, as the light chain of m1; The preparation of the Fab is told for the crystallisation; also called RB1 Fab; monovalent RB1 Fab; source: RB1 mAb (CHO-3E7, Protein A purified) cleaved into monovalent Fab with the Fab Preparation Kit (Pierce)

Key:
[1] = target: T1, stabilized pre-fusion RSV F glycoprotein (DS-Cav1) (Human respiratory syncytial virus A, …, stabilised); assay: cell-based or functional assay
[2] = target: T1, stabilized pre-fusion RSV F …; assay: SPR; Biacore T200; D25 antibody on Protein A chip captures 50 RU DS-Cav1; RB1 Fab flowed in two-fold dilutions 0.31-20 nM, 50 ul/min; 1:1 Langmuir fit; settings: both partners purified
[3] = target: T2, post-fusion RSV F glycoprotein (F∆FP) (Human respiratory syncytial virus A, …, stabilised); assay: SPR; Biacore T200; Synagis antibody on Protein A chip captures 50 RU post-fusion F; RB1 Fab flowed in two-fold dilutions 200-3.12 nM, 40 s dissociation; 1:1 Langmuir fit; settings: both partners purified
T2 construct: RSV fusion (F) glycoprotein, soluble post-fusion form F∆FP; post-fusion F structure PDB 3RRR; also called post-fusion F protein; RSV F post-Fusion; source: Expi293F, transfected, purified from culture supernatant (Ni-Sepharose, Strep-Tactin, thrombin digestion, Superdex 200)

Binder	microneutralization of RSV A (Long) on HEp-2 cells, IC50 (F on the virus, strain Long) [1]	microneutralization of RSV B (Washington) on HEp-2 cells, IC50 (F on the virus, subtype B strain) [1]	Kd [2]	koff [2]	kon [2]	Kd [3]	koff [3]	kon [3]
B1	2.9 ng/mL	1.7 ng/mL						
B2			0.022 nM	0.000164 s⁻¹	7.35e+06 M⁻¹ s⁻¹	135 nM	0.15 s⁻¹	1.12e+06 M⁻¹ s⁻¹
